In publication doi:10.1101/2024.08.19.608714 (bioRxiv, 2024):

Molecular target: the molecule itself
Assay: cryo-EM structure

B1: human XPR1 (natural protein)
chain: MKFAEHLSAHITPEWRKQYIQYEAFKDMLYSAQDQAPSVEVTDEDTVKRYFAKFEEKFFQTCEKELAKINTFYSEKLAEAQRRFATLQNELQSSLDAQKESTGVTTLRQRRKPVFHLSHEERVQHRNIKDLKLAFSEFYLSLILLQNYQNLNFTGFRKILKKHDKILETSRGADWRVAHVEVAPFYTCKKINQLISETEAVVTNELEDGDRQKAMKRLRVPPLGAAQPAPAWTTFRVGLFCGIFIVLNITLVLAAVFKLETDRSIWPLIRIYRGGFLLIEFLFLLGINTYGWRQAGVNHVLIFELNPRSNLSHQHLFEIAGFLGILWCLSLLACFFAPISVIPTYVYPLALYGFMVFFLINPTKTFYYKSRFWLLKLLFRVFTAPFHKVGFADFWLADQLNSLSVILMDLEYMICFYSLELKWDESKGLLPNNSEESGICHKYTYGVRAIVQCIPAWLRFIQCLRRYRDTKRAFPHLVNAGKYSTTFFMVTFAALYSTHKERGHSDTMVFFYLWIVFYIISSCYTLIWDLKMDWGLFDKNAGENTFLREEIVYPQKAYYYCAIIEDVILRFAWTIQISITSTTLLPHSGDIIATVFAPLEVFRRFVWNFFRLENEHLNNCGEFRAVRDISVAPLNADDQTLLEQMMDQDDGVRNRQKNRSWKYNQSISLRRPRLASQSKARDTKVLIEDTDDEANT
  stoichiometry N: 2
